Consider one protein from article PMC10787763, “Two-substrate enzyme engineering using small libraries that combine the substrate preferences from two different variant lineages” (Scientific Reports, 2024).

Substrate in this data set: O=Cc1cccc(C(=O)O)c1
Put plainly: initial-rate kinetics by RP-HPLC, Michaelis-Menten fit. As to conditions: TK-3, acceptor substrate varied, 50 mM pyruvate as donor, 2.4 mM ThDP, 9 mM MgCl2, 50 mM Tris-HCl pH 7.0, 21 °C, error is SEM. In kind it is biochemical, Escherichia coli. From the text: initial-rate kinetics by RP-HPLC, Michaelis-Menten fit on E. coli transketolase (TK), 6M variant scaffold

B1: E. coli transketolase (TK), 6M variant scaffold (Escherichia coli K-12; A282P/D469T/G506A/H100L/H192P/I365L/S385F) (protein)
chain: MSSRKELANAIRALSMDAVQKAKSGHPGAPMGMADIAEVLWRDFLKHNPQNPSWADRDRFVLSNGHGSMLIYSLLHLTGYDLPMEELKNFRQLHSKTPGLPEVGYTAGVETTTGPLGQGIANAVGMAIAEKTLAAQFNRPGHDIVDHYTYAFMGDGCMMEGISHEVCSLAGTLKLGKLIAFYDDNGISIDGPVEGWFTDDTAMRFEAYGWHVIRDIDGHDAASIKRAVEEARAVTDKPSLLMCKTIIGFGSPNKAGTHDSHGAPLGDAEIALTREQLGWKYPPFEIPSEIYAQWDAKEAGQAKESAWNEKFAAYAKAYPQEAAEFTRRMKGEMPSDFDAKAKEFIAKLQANPAKIASRKASQNALEAFGPLLPEFLGGSADLAPFNLTLWSGSKAINEDAAGNYIHYGVREFGMTAIANGISLHGGFLPYTSTFLMFVEYARNAVRMAALMKQRQVMVYTHDSIGLGETGPTHQPVEQVASLRVTPNMSTWRPCDQVESAVAWKYAVERQDGPTALILSRQNLAQQERTEEQLANIARGGYVLKDCAGQPELIFIATGSEVELAVAAYEKLTAEGVKARVVSMPSTDAFDKQDAAYRESVLPKAVTARVAVEAGIADYWYKYVGLNGAIVGMTTFGESAPAELLFEEFGFTVDNVVAKAKELL
notes: full-length, C-terminal His6 tag, expressed in E. coli from lab plasmid (pQR791 / pQR729), Ni-NTA purified; holo-TK with ThDP and Mg2+; non-natural residue by amber suppression in TK-5C
As for B1, the Km is 82 (11) mM, the Vmax was 3500 µM/min and the kcat turned out to be 43 s⁻¹.
